This series concerns Neuro-2a cells. Type of series: cell-based, mouse. Here is the method: FIG. 23 is a graph depicting cell viability from FIG. 22 as measured by flow cytometry at ~48 hours post transfection. Neuro-2a cells were transfected with an expression construct containing the EGFP-R96X-TGA reporter (“GFP-PTC”) and either (i) transfected with an expression construct including the ArgTCA suppressor tRNA #115 (SEQ ID NO: 18) at the indicated copy number on the same construct, or (ii) treated with ataluren at the indicated concentration, (iii) treated with gentamicin at the indication concentration, or (iv) treated with G418 at the indicated concentration. For all experimental conditions, cell culture medium was replaced with fresh medium ~6 hour after transfection and the indicated drugs at the indicated concentrations were added at this point. A reporter containing wildtype GFP without a PTC (“WT-GFP”) was used as a control. “Mock” indicates mock transfected cells. “4×TCG” indicates cells transfected with an expression construct that contains four copies of a wild-type Arg-tRNA with a TCG anticodon and the EGFP-R96X-TGA reporter. Cell viability was assessed by flow cytometry using 7-Amino Actinomycin D (7-AAD), a membrane impermeant dye that is generally excluded from viable cells.
FIG. 34 is a graph depicting cell viability from FIG. 33 as measured by flow cytometry at ~48 hours post transfection. […] Cell viability was assessed by flow cytometry using 7-Amino Actinomycin D (7-AAD), a membrane impermeant dye that is generally excluded from viable cells.
FIG. 36 is a graph depicting cell viability from FIG. 35 as measured by flow cytometry at ~48 hours post transfection. […] Cell viability was assessed by flow cytometry using 7-Amino Actinomycin D (7-AAD), a membrane impermeant dye that is generally excluded from viable cells. […]

B1: tRNA-Arg-TCT-2-1-TCA-SUP_no intron (nucleic acid)
chain: GGCTCCGTGGCGCAATGGATAGCGCATTGGACTTCAAATTCAAAGGTTCCGGGTTCGAGTCCCGGCGGAGTCG
modifications: chemistry not fully specified
As to B1, the cell viability entry is listed as “not accompanied by a decrease in cell viability”.

The record behind these values is patent US12697350B2, “Methods and compositions for treating a premature termination codon-mediated disorder” (Tevard Biosciences, Inc., priority 2019, dated 2026).
